Data on 14 molecules can be found in patent US20140294898A1 (published 2014).

By IC50 is commonly meant the concentration that gives 50% inhibition.

The chains are these.
B1: Compound No. 37 (peptide)
peptide: {CH2CO}-[Phe(4-tBu)][NMeA]NPHL[Sar]WSW[NMeNle][NMeNle]RCG-NH2
modifications: thioether N-14
SMILES: CCCC[C@H]1C(=O)N(C)[C@@H](CCCC)C(=O)N[C@@H](CCCNC(=N)N)C(=O)N[C@H](C(=O)NCC(N)=O)CSCC(=O)N[C@@H](Cc2ccc(C(C)(C)C)cc2)C(=O)N(C)[C@@H](C)C(=O)N[C@@H](CC(N)=O)C(=O)N2CCC[C@H]2C(=O)N[C@@H](Cc2c[nH]cn2)C(=O)N[C@@H](CC(C)C)C(=O)N(C)CC(=O)N[C@@H](Cc2c[nH]c3ccccc23)C(=O)N[C@@H](CO)C(=O)N[C@@H](Cc2c[nH]c3ccccc23)C(=O)N1C
B2: Compound No. 39 (peptide)
peptide: {CH2CO}-[4Pal][NMeA]NPHL[Sar]WSW[NMeNle][NMeNle]RCG-NH2
modifications: thioether N-14
SMILES: CCCC[C@H]1C(=O)N(C)[C@@H](CCCC)C(=O)N[C@@H](CCCNC(=N)N)C(=O)N[C@H](C(=O)NCC(N)=O)CSCC(=O)N[C@@H](Cc2ccncc2)C(=O)N(C)[C@@H](C)C(=O)N[C@@H](CC(N)=O)C(=O)N2CCC[C@H]2C(=O)N[C@@H](Cc2c[nH]cn2)C(=O)N[C@@H](CC(C)C)C(=O)N(C)CC(=O)N[C@@H](Cc2c[nH]c3ccccc23)C(=O)N[C@@H](CO)C(=O)N[C@@H](Cc2c[nH]c3ccccc23)C(=O)N1C
B3: Compound No. 35 (peptide)
peptide: {CH2CO}-[Phe(4-CF3)][NMeA]NPHL[Sar]WSW[NMeNle][NMeNle]RCG-NH2
modifications: thioether N-14
SMILES: CCCC[C@H]1C(=O)N(C)[C@@H](CCCC)C(=O)N[C@@H](CCCNC(=N)N)C(=O)N[C@H](C(=O)NCC(N)=O)CSCC(=O)N[C@@H](Cc2ccc(C(F)(F)F)cc2)C(=O)N(C)[C@@H](C)C(=O)N[C@@H](CC(N)=O)C(=O)N2CCC[C@H]2C(=O)N[C@@H](Cc2c[nH]cn2)C(=O)N[C@@H](CC(C)C)C(=O)N(C)CC(=O)N[C@@H](Cc2c[nH]c3ccccc23)C(=O)N[C@@H](CO)C(=O)N[C@@H](Cc2c[nH]c3ccccc23)C(=O)N1C
B4: Compound No. 44 (peptide)
peptide: {CH2CO}-F[NMeA]N[Pip]HL[Sar]WSW[NMeNle][NMeNle]RCG-NH2
modifications: thioether N-14
SMILES: CCCC[C@H]1C(=O)N(C)[C@@H](CCCC)C(=O)N[C@@H](CCCNC(=N)N)C(=O)N[C@H](C(=O)NCC(N)=O)CSCC(=O)N[C@@H](Cc2ccccc2)C(=O)N(C)[C@@H](C)C(=O)N[C@@H](CC(N)=O)C(=O)N2CCCC[C@H]2C(=O)N[C@@H](Cc2c[nH]cn2)C(=O)N[C@@H](CC(C)C)C(=O)N(C)CC(=O)N[C@@H](Cc2c[nH]c3ccccc23)C(=O)N[C@@H](CO)C(=O)N[C@@H](Cc2c[nH]c3ccccc23)C(=O)N1C
B5: Compound No. 38 (peptide)
peptide: {CH2CO}-[3Pal][NMeA]NPHL[Sar]WSW[NMeNle][NMeNle]RCG-NH2
modifications: thioether N-14
SMILES: CCCC[C@H]1C(=O)N(C)[C@@H](CCCC)C(=O)N[C@@H](CCCNC(=N)N)C(=O)N[C@H](C(=O)NCC(N)=O)CSCC(=O)N[C@@H](Cc2cccnc2)C(=O)N(C)[C@@H](C)C(=O)N[C@@H](CC(N)=O)C(=O)N2CCC[C@H]2C(=O)N[C@@H](Cc2c[nH]cn2)C(=O)N[C@@H](CC(C)C)C(=O)N(C)CC(=O)N[C@@H](Cc2c[nH]c3ccccc23)C(=O)N[C@@H](CO)C(=O)N[C@@H](Cc2c[nH]c3ccccc23)C(=O)N1C
B6: Compound No. 45 (peptide)
peptide: {CH2CO}-F[NMeA]N[Oic]HL[Sar]WSW[NMeNle][NMeNle]RCG-NH2
modifications: thioether N-14
SMILES: CCCC[C@H]1C(=O)N(C)[C@@H](CCCC)C(=O)N[C@@H](CCCNC(=N)N)C(=O)N[C@H](C(=O)NCC(N)=O)CSCC(=O)N[C@@H](Cc2ccccc2)C(=O)N(C)[C@@H](C)C(=O)N[C@@H](CC(N)=O)C(=O)N2[C@@H](C[C@@H]3CCCC[C@@H]32)C(=O)N[C@@H](Cc2c[nH]cn2)C(=O)N[C@@H](CC(C)C)C(=O)N(C)CC(=O)N[C@@H](Cc2c[nH]c3ccccc23)C(=O)N[C@@H](CO)C(=O)N[C@@H](Cc2c[nH]c3ccccc23)C(=O)N1C
B7: Compound No. 34 (peptide)
peptide: {CH2CO}-[Phe(4-Br)][NMeA]NPHL[Sar]WSW[NMeNle][NMeNle]RCG-NH2
modifications: thioether N-14
SMILES: CCCC[C@H]1C(=O)N(C)[C@@H](CCCC)C(=O)N[C@@H](CCCNC(=N)N)C(=O)N[C@H](C(=O)NCC(N)=O)CSCC(=O)N[C@@H](Cc2ccc(Br)cc2)C(=O)N(C)[C@@H](C)C(=O)N[C@@H](CC(N)=O)C(=O)N2CCC[C@H]2C(=O)N[C@@H](Cc2c[nH]cn2)C(=O)N[C@@H](CC(C)C)C(=O)N(C)CC(=O)N[C@@H](Cc2c[nH]c3ccccc23)C(=O)N[C@@H](CO)C(=O)N[C@@H](Cc2c[nH]c3ccccc23)C(=O)N1C
B8: Compound No. 47 (peptide)
peptide: {CH2CO}-F[NMeA]N[Hyp]HL[Sar]WSW[NMeNle][NMeNle]RCG-NH2
modifications: thioether N-14
SMILES: CCCC[C@H]1C(=O)N(C)[C@@H](CCCC)C(=O)N[C@@H](CCCNC(=N)N)C(=O)N[C@H](C(=O)NCC(N)=O)CSCC(=O)N[C@@H](Cc2ccccc2)C(=O)N(C)[C@@H](C)C(=O)N[C@@H](CC(N)=O)C(=O)N2C[C@H](O)C[C@H]2C(=O)N[C@@H](Cc2c[nH]cn2)C(=O)N[C@@H](CC(C)C)C(=O)N(C)CC(=O)N[C@@H](Cc2c[nH]c3ccccc23)C(=O)N[C@@H](CO)C(=O)N[C@@H](Cc2c[nH]c3ccccc23)C(=O)N1C
B9: Compound No. 8 (peptide)
peptide: {CH2CO}-F[NMeA]APHL[Sar]WSW[NMeNle][NMeNle]RCG-NH2
modifications: thioether N-14
SMILES: CCCC[C@H]1C(=O)N(C)[C@@H](CCCC)C(=O)N[C@@H](CCCNC(=N)N)C(=O)N[C@H](C(=O)NCC(N)=O)CSCC(=O)N[C@@H](Cc2ccccc2)C(=O)N(C)[C@@H](C)C(=O)N[C@@H](C)C(=O)N2CCC[C@H]2C(=O)N[C@@H](Cc2c[nH]cn2)C(=O)N[C@@H](CC(C)C)C(=O)N(C)CC(=O)N[C@@H](Cc2c[nH]c3ccccc23)C(=O)N[C@@H](CO)C(=O)N[C@@H](Cc2c[nH]c3ccccc23)C(=O)N1C
notes: macrocyclic peptide, Formula I series; also called Compound 8
B10: Compound No. 13 (peptide)
peptide: {CH2CO}-F[NMeA]NPHL[NMeA]WSW[NMeNle][NMeNle]RCG-NH2
modifications: thioether N-14
SMILES: CCCC[C@H]1C(=O)N(C)[C@@H](CCCC)C(=O)N[C@@H](CCCNC(=N)N)C(=O)N[C@H](C(=O)NCC(N)=O)CSCC(=O)N[C@@H](Cc2ccccc2)C(=O)N(C)[C@@H](C)C(=O)N[C@@H](CC(N)=O)C(=O)N2CCC[C@H]2C(=O)N[C@@H](Cc2c[nH]cn2)C(=O)N[C@@H](CC(C)C)C(=O)N(C)[C@@H](C)C(=O)N[C@@H](Cc2c[nH]c3ccccc23)C(=O)N[C@@H](CO)C(=O)N[C@@H](Cc2c[nH]c3ccccc23)C(=O)N1C
notes: macrocyclic peptide, Formula I series; also called Compound 13
B11: Compound No. 10 (peptide)
peptide: {CH2CO}-F[NMeA]NPAL[Sar]WSW[NMeNle][NMeNle]RCG-NH2
modifications: thioether N-14
SMILES: CCCC[C@H]1C(=O)N(C)[C@@H](CCCC)C(=O)N[C@@H](CCCNC(=N)N)C(=O)N[C@H](C(=O)NCC(N)=O)CSCC(=O)N[C@@H](Cc2ccccc2)C(=O)N(C)[C@@H](C)C(=O)N[C@@H](CC(N)=O)C(=O)N2CCC[C@H]2C(=O)N[C@@H](C)C(=O)N[C@@H](CC(C)C)C(=O)N(C)CC(=O)N[C@@H](Cc2c[nH]c3ccccc23)C(=O)N[C@@H](CO)C(=O)N[C@@H](Cc2c[nH]c3ccccc23)C(=O)N1C
notes: macrocyclic peptide, Formula I series; also called Compound 10
B12: Compound No. 14 (peptide)
peptide: {CH2CO}-F[NMeA]NPHL[dNMeA]WSW[NMeNle][NMeNle]RCG-NH2
modifications: thioether N-14
SMILES: CCCC[C@H]1C(=O)N(C)[C@@H](CCCC)C(=O)N[C@@H](CCCNC(=N)N)C(=O)N[C@H](C(=O)NCC(N)=O)CSCC(=O)N[C@@H](Cc2ccccc2)C(=O)N(C)[C@@H](C)C(=O)N[C@@H](CC(N)=O)C(=O)N2CCC[C@H]2C(=O)N[C@@H](Cc2c[nH]cn2)C(=O)N[C@@H](CC(C)C)C(=O)N(C)[C@H](C)C(=O)N[C@@H](Cc2c[nH]c3ccccc23)C(=O)N[C@@H](CO)C(=O)N[C@@H](Cc2c[nH]c3ccccc23)C(=O)N1C
notes: macrocyclic peptide, Formula I series; also called Compound 14

Positions of bridges follow the written chain, without caps; N, C: chain ends. Non-standard residues stand in square brackets, D forms with d. Phe(4-CF3) = N[C@@H](Cc1ccc(C(F)(F)F)cc1)C(=O)O; Phe(4-tBu) = CC(C)(C)c1ccc(C[C@H](N)C(=O)O)cc1; Oic = O=C(O)[C@@H]1C[C@@H]2CCCC[C@@H]2N1; Phe(4-Br) = N[C@@H](Cc1ccc(Br)cc1)C(=O)O; Hyp = O=C(O)[C@@H]1C[C@@H](O)CN1; 3Pal = N[C@@H](Cc1cccnc1)C(=O)O; 4Pal = N[C@@H](Cc1ccncc1)C(=O)O; NMeNle = CCCC[C@H](NC)C(=O)O; Pro(4-NH2) = 4-aminoproline; Pro(4-Ph) = 4-phenylproline; Pip = O=C(O)[C@@H]1CCCCN1; NMeA = CN[C@@H](C)C(=O)O; dNMeA = CN[C@H](C)C(=O)O; Sar = CNCC(=O)O

T1 sequence (Q9NZQ7 other isoform, or with tags, fused parts or gaps limits assumed): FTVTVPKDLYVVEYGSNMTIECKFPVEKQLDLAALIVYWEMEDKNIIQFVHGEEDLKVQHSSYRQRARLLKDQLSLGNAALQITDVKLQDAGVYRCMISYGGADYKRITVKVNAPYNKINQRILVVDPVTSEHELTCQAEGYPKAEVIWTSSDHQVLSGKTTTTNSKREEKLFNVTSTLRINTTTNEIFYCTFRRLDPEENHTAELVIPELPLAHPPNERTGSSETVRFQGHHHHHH

One assay concerns the target T1, hPDL1(19-239)-TVMV-His (human, UniProt Q9NZQ7 19-239).
T1 construct: The text says amino acids 18-239, the construct name says 19-239; Expressed in HEK293T cells; Used at 10 nM final in the HTRF assay; also called PD-L1-His; PD-L1-TVMV-His
In words: HTRF competition, PD-1-Ig binding to PD-L1-His. Here is the method:
All binding studies were performed in an HTRF assay buffer consisting of dPBS supplemented with 0.1% (w/v) bovine serum albumin and 0.05% (v/v) Tween-20. […] PD-L1 fusion proteins from either human, cynomologous macaques, or mouse were used. HTRF detection was achieved using europium crypate-labeled anti-Ig monoclonal antibody (1 nM final) and allophycocyanin (APC) labeled anti-His monoclonal antibody (20 nM final). Antibodies were diluted in HTRF detection buffer and 5 μl was dispensed on top of binding reaction. The reaction was allowed to equilibrate for 30 minutes and signal (665 nm/620 nm ratio) was obtained using an EnVision fluorometer. […]
HTRF Experiments were performed essentially as outlined supra. Variant macrocyclic peptides were created as outlined herein.
(In TR-FRET formats the signal depends on donor and acceptor labels being close together.)
For the molecule B1, the half-inhibitory concentration (IC50) came to 1270 nM.
As for B2, the IC50 is 33 nM.
Same read-out and setting: then B3, with 56 nM; and {CH2CO}-F[NMeA]N[Pro(4-Ph)]HL[Sar]WSW[NMeNle][NMeNle]RCG-NH2 (thioether N-14) [Compound No. 46], with 873 nM; and B4, with 34 nM.
In turn, B5 came in with an IC50 of 46 nM.
Still for that read-out and setting: the result for B6 reads 105 nM.
Molecule {CH2CO}-F[NMeA]N[Pro(4-NH2)]HL[Sar]WSW[NMeNle][NMeNle]RCG-NH2 (thioether N-14) [Compound No. 48] gave an IC50 of 40 nM.
On the same count and under the same terms, the result for B7 reads 4 nM; that for B8, 27 nM.

For the next assay, the target named is T2, human PD-L1 (human, UniProt Q9NZQ7 19-239, limits assumed).
T2 construct: also called Hu PD-L1; hPD-L1
T2 sequence (Q9NZQ7 19-239 limits assumed): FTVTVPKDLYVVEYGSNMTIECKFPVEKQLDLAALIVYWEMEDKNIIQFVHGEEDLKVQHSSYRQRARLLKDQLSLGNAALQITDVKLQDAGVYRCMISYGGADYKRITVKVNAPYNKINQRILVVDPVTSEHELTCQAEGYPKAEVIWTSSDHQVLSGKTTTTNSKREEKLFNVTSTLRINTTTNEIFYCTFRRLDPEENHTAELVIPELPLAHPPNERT
Nature of the assay: cell binding assay, inhibition of Hu PD-L1/PD-1 binding.
As for B9, the IC50 stood at 223 nM.
B10 returned an IC50 of 35 nM.
Still for that read-out and setting: then B11, with 82 nM; and B12, with 242 nM.
